The record followed here is patent publication US20050261475A1.

This experiment has as its target recombinant microtubule-associated protein Tau (Homo sapiens (Human)) (UniProt P10636).

Take “purified active CDK5/p25 complex (enzyme)”: the in vitro phosphorylation, stoichiometry; MALDI-TOF MS of tryptic peptides (phosphates per Tau molecule) turned out to be 0.5.
